The target of this assay is T1, CusB (E. coli, UniProt P77239 29-407).
T1 sequence (looked up): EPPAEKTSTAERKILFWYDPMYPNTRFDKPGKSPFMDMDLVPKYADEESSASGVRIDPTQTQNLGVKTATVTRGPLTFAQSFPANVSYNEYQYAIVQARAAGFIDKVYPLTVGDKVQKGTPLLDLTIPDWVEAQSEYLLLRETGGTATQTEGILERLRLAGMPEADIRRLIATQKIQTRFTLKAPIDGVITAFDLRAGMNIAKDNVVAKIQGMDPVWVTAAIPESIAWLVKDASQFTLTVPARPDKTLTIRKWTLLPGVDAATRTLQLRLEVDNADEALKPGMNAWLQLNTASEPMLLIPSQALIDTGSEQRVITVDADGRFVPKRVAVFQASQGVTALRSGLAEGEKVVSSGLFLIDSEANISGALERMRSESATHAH
The experiment in a line: NMR 15N relaxation.

B1: CusF (natural protein, E. coli, UniProt P77214 22-110, looked up)
chain: ANEHHHETMSEAQPQVISATGVVKGIDLESKKITIHHDPIAAVNWPEMTMRFTITPQTKMSEIKTGDKVAFNFVQQGNLSLLQDIKVSQ
B1 returned a Kd of about 160 µM.
